The results in this text go back to the nanobody polyreactivity screen of Harvey et al. (2022).

The series is described as follows: yeast display, Sf9 membrane polyspecificity reagent, FACS + sequencing; frameworks hold sequencing errors. Summed up:
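Synthetic nanobody libraries on Saccharomyces cerevisiae BJ5465 were galactose-induced for 36–48 hours, stained 1 hour at 4 °C with 10% biotinylated, detergent-solubilized Sf9 membrane reagent and enriched on streptavidin microbeads. FACS then separated cells into low and high (top ~1%) gates by anti-HA (expression) and streptavidin (reagent binding) fluorescence. Genes were colony-PCR amplified, MiSeq 2 × 250 sequenced and CDR-length filtered. A clone's polyreactivity label is that of its gate of origin.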
Take “QVQLVESGGGLVQEGGSLRLICAASGRTFRHNVMGWYRQAPGKQRELVAAISYSGGSTHYADSVKGRFTISRDNAKYTVYLQMNSLKPVDTAVYYCNRYSYDSHFLYPFRGHDYWGQGTQVTVSS”: the “polyreactivity (PSR sort gate)” value is “low polyreactivity”. The value for “QVQLVESGGGLVQAGGSLRLSSAASGSIFLKNAMGRSRQAPGKERELVARISFSGGSTYYADSVKGRFTISRDNAQNTVYLQMNSLKPEDTAVYYCAKTVLRTESGWWIKFDYWGQGTQVTVSS” was “low polyreactivity”; that for “QVQLVESGGGLVQAGGSLRLSCAASGSIFKSYAMGWYRQAPGKERELVAAITWRSGRTYYADSVKGRFTISRDNAKNTVYLQMTSLKPEDTAVYYCAADDTSYYIYSYDYWGQGTQVTVSS” was “low polyreactivity”; that for “QVQLVESGGGLVQAGGSLRLSCSASGSILVRYAMGWYRQSPGKERELVAAITSGGSTYADSVKGRFTISRDNAKNTVYLQMNSLKPEDTAVYYCARDYFNREAFDYWGQGTQVTVSS” was “low polyreactivity”.

Regarding “QVQLVESGGGLVQAGGSLRLSCAASGSIFVSEYVMGWYRQAPGKERELVARIRWSSGSTYYADSVKGRFTISRDNAKNTVYLQMNSLKPEDTAVYYCAKATSSFYHYRYDYWGQGTQVTVSS”, the “polyreactivity (PSR sort gate)” value was “low polyreactivity”. With “QVQLVESGGGLVQAGGSLRLSCAASGRTFWRYAMGWYRQAPGKERELVARISSGGSTYYADSVKGRFTISRDNAKNTVYLQINSLKPEDTAVYYCAVLSRHRRVPWYRYNYWGQGTQVTVSS”, the “polyreactivity (PSR sort gate)” value is recorded as “low polyreactivity”. The value for “QVQLVESGGGLVQAGGSLRLSCAASGSTFDPYAMGWYRQAPGKDRELVAAISSDGSTYYADSVKGRFTISRDNAKNTVYLQMNSLKPEYTAVYYCAADPFYWYRSVRGEYWGQGTQVTVSS” was “low polyreactivity”; that for “QVQLVESGGGLVQAGGTLRLSCAASGRIISYNPMGWYRAAAGKEMELVAPINWGGGSTYYADSVKGRFTISRDNAKNTVYLQMNSLKPEDTAVYYCNADSNWYYQWNYYGLYDYWGQGTQVTVSS” was “low polyreactivity”. Next, “QVQLVESGGGLVQAGGSLRLSCAASGSTFQRYAMGWYRQAPGKERELVAAITWSGGSTKYADSVKGRFTISRDNAKNTVYLQMNSLKPEDTAVYYCAATPGRGGGYNYWGQGTQVTVSS”: “low polyreactivity”; “QVQLVESGGGLVQAGGSLRLSCAASGITFRVYVMGWYRQAPGKERELVAAITRSGGRTYYADSVKGRFTISRDNAKNTVYLQMNSLKPEDTAVYYCAAEYDVYGIYEYDYWGQGTQVTVSS”: “high polyreactivity”; “QVQLVESGGGLVQAGGSLRLSCAASGSISKGYAMGWYRQAPGKERELVARISGDGGSTYYADSVKGRFTISRDNAKNTVYLQMNSLKPEDTAVYYCNTRQQFTLTRGVFLHNYWGQGTQVTVSS”: “high polyreactivity”. Next, “QVQLVESGGGLVHAGGSLRLSCAPSGSIFGPYAMGWYIQAPGKERELVAAIRSGGSTNYADSVKGRFTISRDNAKNTVYLQMNSLKPDDTSVYYWAGEYWGYPYDYWGQGTQVTVSS”: “low polyreactivity”. “QVQLVESVGCLVQARGSLRLSCAASGFTFPHYAMGWYRQAPGKERELVAVISWSGSSTYYADSVKGRFTISRDNAKNTVYLKMNSLKPVVNAVYYCNTRKLYQVDYDYWGQGSQVTVSS”: the “polyreactivity (PSR sort gate)” value is “high polyreactivity”. Turning to “QVQLVESGAGLVQAGGSLRLSCAASGSTFKPNVMGWYRQAPGKERELVAAITSTDDRTYYADSVKGRFTISRDNAKNTVYLQMNSLKPEDTAVYYCAVESLRDDFEYDYWGQGTQVTVSS”, the “polyreactivity (PSR sort gate)” value is on record as “low polyreactivity”.

Consider “QVQLVESGGGLVQAGGSLRLSCAASGFTYYVNAMGWYRPAPGKERELDAAISSSGTRTYYADSVKGRFTISRDNAKNTVYLQMNSLKPEDTAVYYCAARGQAYSGDRMYYWGQGTQVTVSS”, for which the “polyreactivity (PSR sort gate)” value is reported as “high polyreactivity”.

Regarding “QVQLVESGGGLVQAGGSLRLSCAASGSIFAVYVMGWYRQAPGKERDFVAAITYSGTSTNYADSVKGRFTISRDNAKNTVYLQMNSLKPEDTAVFYCAADVRSSNGHYTLYDYWGQGTQVTVSS”, the “polyreactivity (PSR sort gate)” value was “high polyreactivity”. Next, “QVQLVESRGGLVQAGGSLRLSCSASGIIFEYYAMGWYRQAPGKERELVAAISSDTSTNYADSVKGRFTISRDNAKNTVYLQMNSLKPEDTAVYYCNADAYYDTYGICVGTDYDYWGQGTQVTVSS”: “low polyreactivity”; “QVQLVESGGGLVQAGGSLRLSCAASGITFYPYVMGWYRQAPGKERELVAVITWSGGRTYYADSVKGRFTISRDNAKNTVYLQMNSLKPEDTAVYYCAADPLSGYDYWGQGTQVTVSS”: “low polyreactivity”; “QVQLVESGGGLVQAAGSLRLSCAASGSIFGPNAMGWYRQAPGKERELVASITLSGGSTYYADSVKGRFTISRDNAKNNVYLQMNSLKPVDTAVYYCNADLLPADAPLWVTGGDYWGQGTQVTVSS”: “low polyreactivity”.

On to “QVQLVETGGGLVQAGGSLRLSCAASVRIIWGNAMGWYRQAPGTERELVAALRASGGSTHYADSVKGRFTISRDNAKKTVYFQINSLKPEDTAVYYCIAVKRVGAYWGRSFAYYYWGQGTQVTVSS”, for which the “polyreactivity (PSR sort gate)” value was “high polyreactivity”.

With “QVQLVESGGGLVQAGGSLRLSCAASGSTFGDNTMGWYRQAPGKERELVASISKSGGSTYYADSVKGRFTISRDNAKNTVYLQMNSLKPEDTAVYYCNRVTHYIRFDYWGQGTQVTVSS”, the “polyreactivity (PSR sort gate)” value is reported as “low polyreactivity”. The value for “QVQLVESGGGLVQAGGSLRLSCAASGMGWYRQAPGKERELVAAITSGDSTNYADSVKGRFTISRDNAKNTVYLQMNSLKPEDTAVYYCAADPDYLYAYYYWGQGSQVTVSS” was “low polyreactivity”; that for “QVQLVESGGGLVQAGCSLRLSCAASGSTFTTNAMGWYRQAPGKEREFVAAITSSGGSTYYADSVKGRFTISRDNAKNTVYLQMNSLKPEDNAVYYCNADGDPSQKLFGRSYDYWGQGTQVNVSS” was “low polyreactivity”; that for “QVQLVESGGGLFQEGGSLRLSCAASGYTFKGNAMGWYRQAPGKDWELVAAISRSGASTYYADSVKGRFTISRDNAKNTVYLQMNSLKPEDTAVYYCAAEWYRGGEYRRYDYWGQGTQVTVSS” was “high polyreactivity”. Next, “QVQLVESGGGLVQAGGSLRLSCAASGRIFKYYVMGWYRQAPGKESELVAAISSGSGSTYYADSVKGRFTISRDNAKNTVYLQMNSLKPEDTAVYYCNALSSWRRTYGSRYDYWGQGTQVTVSS”: “high polyreactivity”; “QVQLVESGGGLVQAGGSLRLSCAASGSTFRRNAMGWYRQAPGKERELVAAIRYSGSSTYYADSVKGRFTISRGNAKNTVYLQMNSLKPEDTAVYYCATVRNNRYKYDYWGQGTQVTVSS”: “high polyreactivity”.

As for “QVQLVESGGGLVQAGGSLRLSCAASGGTFSRNAMGWYRQAPGKERELVAAINTSGVSTSYADSVKGRFTISRDNAKNTVYLQMNSLKPEDTAVYYCAAETSSAEVDYWGQGTQVTVSS”, the “polyreactivity (PSR sort gate)” value was “low polyreactivity”.

On to “QVQLVESGGGLVQAGGSLRLSCAASGRTFTTNAMGWYRQAPGKERELVAAISRRGGSTYYADSVKGRFTISRDNAKNTVYLQMNSLKPEDTAVYYCYAHLWIRGYDYWGQGTQVTVSS”, for which the “polyreactivity (PSR sort gate)” value is reported as “high polyreactivity”.

“QVQLVESGGGLVQAGGSLRLSSAASGRIFIDYAMGWYRQAPGTDRELVATITSSGGSTYYADSVKGRFTISRDNAKNTVYIQMTSLKPVDTAVYYCNAKERYYFGNYKYGYWGQGTQVTVSS”: the “polyreactivity (PSR sort gate)” value is on record as “low polyreactivity”.

In the case of “QVQLVESGGGLVQAGGSLSLSCAASGRTFAPYAMGWYRQAPGKEREFVAGITWSSSSTYADSVKGRFTISRDNAKITVYFQMNSLKPEDPAVYYCAASHAKGGNRHYYWGQGTQVTVSS”, the “polyreactivity (PSR sort gate)” value is “high polyreactivity”.

“QVQLVESGGGLVQAGGSLRLSCAASGSIFKQNAMGWYRQAPGKDRELVASIRASGDRTYYADSVKGRFTISRDNAKNTVYLQMNSLKPEDTAVYYCAARRVRTRGYNYWGQGTQVTVSS”: the “polyreactivity (PSR sort gate)” value is “high polyreactivity”. Next, “QVQLVESGGGLVQAGGSLRLSCAASGRTFGVKAMGWYRQAPGKERELVAAITSGGTTNYADSVKGRFTISRDNAKNTFYLQMNSLKPEDTAVYYCAARSYYPRYGYWGQGTQVTVSS”: “high polyreactivity”. The value for “QVQLVESGGGLVQAGGSLRLTCAASGFTFGRYTMGWYRQAPGKERELVAAISGRGSRTYYADSVKGRFTISRDNAKNTVYLQMSSLKPVDTAVYYCAADVNVRSDMDYWGQGTQVTVSS” was “high polyreactivity”; that for “QVQLVESGGGLVQAGGSLRLSCAASGFIFGVNAMGWYRQAPGKERELVAAIRWRGGSTYYADSVKGRFTISRDNAKNTVYLQMNSLKPEDTAVYYCAAARFVGGSGYVRILYYWGQGTQVTVSS” was “high polyreactivity”; that for “QVQLVESGGGLVQAGGSLRLSCAASGSIFTYYTMGWYRPAPGKERELVAAIRWSAGRTYYADSVKGRFTISRDNAKNTVYLQMNSLKPEDTAVYYCAAAERLRHGLKFDYWGQGTQVTVSS” was “high polyreactivity”. For the sequence “QDQLVESGGVLFQAGGSLRLTCAAYGRILYHYDMGWYRQAPGKERELVAAITRGAGTNYADSVKGRFTISRDNAKNTVYVQMNSLKPEDTAVYYCNADRFIVTRSRRGDYWGQGTQVTVSS”, the “polyreactivity (PSR sort gate)” value was “low polyreactivity”. Next, “QVQLVESGGGLVQAGRSLRLICAASGRILVPYTMGWYRQAPGKERDLVAAITIGGRTTYADSVKGRLTISRDNAKNTLYLQMNIMKPEDTAVYYCAKRDWRYEWYGYDYWGQGTQVTVSS”: “low polyreactivity”; “QVQLVESGGGLVQAGGSLRLSCAASGSTIDYYAMGWYRQAPGKERELVAGIDSAGSTNYADSVKGRFTISRDNAKNTFYLQMNSLKTGRYRGLYCNVGKTITTYAFTTFDYWGQGTHVTVSS”: “low polyreactivity”. With “QVQLVESGGGLVQAGGSLRLSCAASGSTFYHYAMGWYRQAPGKERELVAAISTGGSTYYADSVKGRFTISRDNAKNTVYLQMNSLKPEDTAVEYCNARYIGGYGYWGQGTQVTVSS”, the “polyreactivity (PSR sort gate)” value is recorded as “low polyreactivity”. For “QVQLVESGGGLVQAGGSLRLSCAASGSIFKLNAMGWYRQAPGKERELVAAITFSDGSTNYADSVKGRFTISRDNAKNTVYLQMNSLKPEDTAVYYCAAEFYYRTQWYYYWGQGTQVTVSS”, the “polyreactivity (PSR sort gate)” value is “high polyreactivity”.

“QVQLVESGGGLVQAGGSLRLSCAASGRIFAGYVMGWYRQAPGKERELVAAITSGGGTDYADSVKGRFTISRDNAKNTVYLQMNSQKPEDTAVYYCAADPYYSWFGWDYEYWGQGTQVTVSS”: the “polyreactivity (PSR sort gate)” value was “high polyreactivity”.
